Measured values as given in patent US20060292657A1, “Phex substrates and methods using same” (priority 2003, published 2006).

Tests used:
Test in all cases: Kinetic parameters for hydrolysis of internally quenched fluorogenic peptides by secPHEX
Format in all cases: biochemical, human
Conditions in all cases: other: 37° C., 10 mM Bis-Tris buffer pH 5.5, 150 mM NaCl
[1] = substrate: C[C@H](NC(=O)[C@H](CC(=O)O)NC(=O)[C@H](CCC(=O)O)NC(=O)[C@H](CO)NC(=O)[C@H](CCCNC(=N)N)NC(=O)c1ccccc1N)C(=O)NCC(=O)N[C@@H](Cc1ccccc1)C(=O)N[C@@H](CCC(N)=O)C(=O)NCCNc1ccc([N+](=O)[O-])cc1[N+](=O)[O-]
Summary of the method: (§1)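 Purified human recombinant secPHEX hydrolysing internally quenched fluorogenic peptides at 37° C in 10 mM Bis-Tris pH 5.5, 150 mM NaCl; fluorescence (ex 320, em 420 nm) followed continuously, <5% substrate hydrolysed, inner-filter corrected. Km and kcat by non-linear regression; kcat/Km under [S]<<Km where applicable.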

[2] = substrate: NC(=O)CC[C@H](NC(=O)[C@H](Cc1ccc(O)cc1)NC(=O)[C@H](CC(=O)O)NC(=O)[C@H](CO)NC(=O)[C@H](Cc1ccccc1)NC(=O)CNC(=O)c1ccccc1N)C(=O)NCCNc1ccc([N+](=O)[O-])cc1[N+](=O)[O-]
Summary of the method: as §1

[3] = substrate: C[C@H](NC(=O)[C@H](CO)NC(=O)c1ccccc1N)C(=O)N[C@@H](CCC(=O)O)C(=O)N[C@@H](CC(=O)O)C(=O)N[C@@H](CC(N)=O)C(=O)N[C@@H](CO)C(=O)N1CCC[C@H]1C(=O)N[C@@H](CCC(N)=O)C(=O)NCCNc1ccc([N+](=O)[O-])cc1[N+](=O)[O-]
Summary of the method: as §1

[4] = substrate: CSCC[C@H](NC(=O)[C@H](CCC(=O)O)NC(=O)[C@H](CC(N)=O)NC(=O)c1ccccc1N)C(=O)N[C@@H](CC(=O)O)C(=O)N[C@@H](CO)C(=O)N[C@@H](Cc1ccccc1)C(=O)N[C@@H](CC(N)=O)C(=O)N[C@@H](CCC(N)=O)C(=O)NCCNc1ccc([N+](=O)[O-])cc1[N+](=O)[O-]
Summary of the method: as §1

[5] = substrate: CSCC[C@H](NC(=O)[C@H](CC(C)C)NC(=O)c1ccccc1N)C(=O)N[C@@H](CCSC)C(=O)N[C@@H](CC(=O)O)C(=O)N[C@@H](Cc1ccccc1)C(=O)N[C@@H](CCCNC(=N)N)C(=O)NCC(=O)N[C@@H](CCC(N)=O)C(=O)NCCNc1ccc([N+](=O)[O-])cc1[N+](=O)[O-]
Summary of the method: as §1

B1: human recombinant secPHEX (Homo sapiens) (protein)
chain: SLQAKQEYCLKPECIEAAAAILSKVNLSVDPCDNFFRFACDGWISNNPIPEDMPSYGVYPWLRHNVDLKLKELLEKSISRRRDTEAIQKAKILYSSCMNEKAIEKADAKPLLHILRHSPFRWPVLESNIGPEGVWSERKFSLLQTLATFRGQYSNSVFIRLYVSPDDKASNEHILKLDQATLSLAVREDYLDNSTEAKSYRDALYKFMVDTAVLLGANSSRAEHDMKSVLRLEIKIAEIMIPHENRTSEAMYNKMNISELSAMIPQFDWLGYIKKVIDTRLYPHLKDISPSENVVVRVPQYFKDLFRILGSERKKTIANYLVWRMVYSRIPNLSRRFQYRWLEFSRVIQGTTTLLPQWDKCVNFIESALPYVVGKMFVDVYFQEDKKEMMEELVEGVRWAFIDMLEKENEWMDAGTKRKAKEKARAVLAKVGYPEFIMNDTHVNEDLKAIKFSEADYFGNVLQTRKYLAQSDFFWLRKAVPKTEWFTNPTTVNAFYSASTNQIRFPAGELQKPFFWGTEYPRSLSYGAIGVIVGHEFTHGFDNNGRKYDKNGNLDPWWSTESEEKFKEKTKCMINQYSNYYWKKAGLNVKGKRTLGENIADNGGLREAFRAYRKWINDRRQGLEEPLLPGITFTNNQLFFLSYAHVRCNSYRPEAAREQVQIGAHSPPQFRVNGAISNFEEFQKAFNCPPNSTMNRGMDSCRLW
notes: pure soluble form of PHEX (secPHEX); made in house
- Km [1]: 4.1 µM
- kcat [1]: 0.06 s⁻¹
- kcat/Km [1]: 14600 M⁻¹ s⁻¹
- Km [2]: 13.3 µM
- kcat [2]: 0.6 s⁻¹
- kcat/Km [2]: 45100 M⁻¹ s⁻¹
- Km [3]: 22.0 µM
- kcat [3]: 0.3 s⁻¹
- kcat/Km [3]: 13600 M⁻¹ s⁻¹
- Km [4]: 38.0 µM
- kcat [4]: 0.3 s⁻¹
- kcat/Km [4]: 7900 M⁻¹ s⁻¹
- Km [5]: 17.0 µM
- kcat [5]: 0.8 s⁻¹
- kcat/Km [5]: 45000 M⁻¹ s⁻¹
